Laboratory results from the supplement of paper PMC10126150.
± gives the standard deviation of the averaged measurements.

Test system: ATP
Assay: switch fluorescence ratio, 500 uM ATP over buffer (Cy3 cluster intensity, sum of 5 cycles each) (fold (ratio)); higher = stronger signal-on switching upon ATP binding; sequences stand for … in TCGTCGGCAGCGTCAGATGTGTATAAGAGACAGTTTTTTTTTTTTTTTTTTTTTTTTT…TC
Details: aptamer strand: ATP DNA aptamer (quencher-CACCTGGGGGAGTATTGCGGAGGAAGG + anchor), 100 nM annealed; ATP concentration: 500 uM
Method in brief: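 Exposure to 500 uM ATP lasted 15 min at 22 °C before imaging, and a selection-buffer image was taken beforehand, for Cy3-labelled switching-strand clusters on a modified Illumina MiSeq flow-cell annealed to 100 nM quencher-labelled ATP aptamer. Five buffer/ATP cycles were run with NaOH stripping and re-annealing between them. The fluorescence ratio per cluster is summed target-cycle over summed buffer-cycle Cy3 intensity, averaged per switch-domain sequence. Clusters outside 100-1000 RFU were excluded.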

Sequence	switch fluorescence ratio
GGCTAAACG	1.05 ± 0.011
GGCTAAGGAT	1 ± 0.018
GGCTAAGGGT	0.995 ± 0.013
GGCTAGCTAC	1.09 ± 0.012
GGCTATCGGT	0.978 ± 0.035
GGCTATGGTG	1.004 ± 0.01
GGCTATTATT	0.985 ± 0.025
GGCTATTCCT	1.01 ± 0.0012
GGCTATTTTC	0.991 ± 0.051
GGCTCAACGA	1.01 ± 0.045
GGCTCAGCGG	1.03 ± 0.07
GGCTCAGGCA	1.04 ± 0.023
GGCTCTGCTA	1.11 ± 0.047
GGCTGAGGCA	1.01 ± 0.029
GGCTGATTTG	0.961 ± 0.027
GGCTGGATTT	0.98525 ± 0.00086
GGCTGGCCAT	1.01 ± 0.025
GGCTGGCGGC	0.984 ± 0.026
GGCTGGGTGG	1.01 ± 0.053
GGCTGGGTTT	1.02 ± 0.026
GGCTGGTATA	0.987 ± 0.031
GGCTTAGACG	0.959 ± 0.063
GGCTTAGAGT	0.971 ± 0.011
GGCTTAGCAT	1.02 ± 0.037
GGCTTCGGGA	1.01 ± 0.054

Sequence	switch fluorescence ratio
GGCTTGCGTA	0.9512 ± 0.0029
GGCTTGCTTT	1.01 ± 0.021
GGCTTGGTTA	1.02 ± 0.015
GGCTTTAGTA	1.02 ± 0.027
GGCTTTATGG	0.977 ± 0.024
GGCTTTGTAG	0.9956 ± 0.0081
GGCTTTTGCT	0.9978 ± 0.0038
GGCTTTTGTA	0.972 ± 0.019
GGGAAAAAGC	0.993 ± 0.04
GGGAAAAGAT	0.978 ± 0.042
GGGAAAATAT	0.999 ± 0.063
GGGAAAATTC	1.06 ± 0.089
GGGAAACATG	0.979 ± 0.028
GGGAAACTGA	1.04 ± 0.0027
GGGAAAGAGG	0.991 ± 0.048
GGGAAAGGCG	0.983 ± 0.042
GGGAAAGGGA	0.978 ± 0.022
GGGAAATAGA	1.004 ± 0.0088
GGGAAATCAG	0.9838 ± 0.0076
GGGAAATGCG	0.9983 ± 0.0053
GGGAAATTTT	0.987 ± 0.021
GGGAACCAAG	0.997 ± 0.026
GGGAACGAGG	1.02 ± 0.019
GGGAACGGGT	1 ± 0.035
GGGAACGTTA	1.05 ± 0.035

Sequence	switch fluorescence ratio
GGGAAGAAGT	1.011 ± 0.0084
GGGAAGACGC	0.978 ± 0.025
GGGAAGAGTT	0.994 ± 0.012
GGGAAGATTT	0.992 ± 0.036
GGGAAGCGTT	0.997 ± 0.012
GGGAAGCTTA	1.008 ± 0.0042
GGGAAGGGTT	0.998 ± 0.029
GGGAATAACG	0.972 ± 0.058
GGGAATATTT	0.995 ± 0.0097
GGGAATCCGG	1.02 ± 0.013
GGGAATCGTC	0.987 ± 0.04
GGGAATGCGG	0.99 ± 0.03
GGGAATGCTT	1.016 ± 0.0054
GGGAATGGAG	0.976 ± 0.029
GGGAATTAGG	1 ± 0.021
GGGACAGGGG	1.21 ± 0.35
GGGACATGTA	0.98 ± 0.022
GGGACCAGAT	1.01 ± 0.033
GGGACCGGTG	1.03 ± 0.02
GGGACGAGGG	1.03 ± 0.035
GGGACGGGTA	1.008 ± 0.0015
GGGACGTCGT	1.04 ± 0.042
GGGAGAACG	0.98 ± 0.017
GGGAGAGAGG	0.984 ± 0.011
GGGAGAGGGA	0.978 ± 0.021

Sequence	switch fluorescence ratio
GGGAGAGGTT	0.987 ± 0.032
GGGAGAGTTT	1.01 ± 0.026
GGGAGCCGAG	1 ± 0.03
GGGAGGAGGC	0.889 ± 0.04
GGGAGGAGTT	0.9689 ± 0.0067
GGGAGGCAAT	1.46 ± 0.38
GGGAGGGATA	0.995 ± 0.02
GGGAGGGGAA	1.1 ± 0.15
GGGAGGTGGT	1.08 ± 0.17
GGGAGTAAAT	1.01 ± 0.037
GGGAGTAGCC	1.01 ± 0.059
GGGAGTATCT	0.9998 ± 0.0028
GGGAGTATGT	0.977 ± 0.054
GGGAGTGGGA	1.01 ± 0.011
GGGAGTGTGC	1.016 ± 0.0053
GGGAGTTCTA	0.991 ± 0.023
GGGATAAAGT	0.988 ± 0.022
GGGATAAATA	0.9996 ± 0.0023
GGGATAAGCT	1.02 ± 0.022
GGGATACAGC	1.03 ± 0.059
GGGATACGGT	1.0248 ± 0.00074
GGGATAGACT	0.995 ± 0.035
GGGATAGCAC	1.09 ± 0.13
GGGATAGGAG	1 ± 0.03
GGGATATAGG	0.9937 ± 0.0021

Sequence	switch fluorescence ratio
GGGATATGGT	0.986 ± 0.019
GGGATATTGG	0.992 ± 0.013
GGGATCAGAA	0.999 ± 0.074
GGGATCAGCG	0.988 ± 0.041
GGGATCGGTG	0.995 ± 0.016
GGGATCTGCG	0.95 ± 0.017
GGGATGAGGG	0.97 ± 0.037
GGGATGGACC	1 ± 0.018
GGGATGTTTG	0.987 ± 0.017
GGGATTAGCG	0.957 ± 0.037
GGGATTAGGA	0.995 ± 0.052
GGGATTAGGG	1.02 ± 0.043
GGGATTATTC	0.9725 ± 0.0041
GGGATTGGAG	0.995 ± 0.016
GGGATTGGCT	1.01 ± 0.015
GGGATTGGGC	0.992 ± 0.022
GGGATTGGGG	1 ± 0.012
GGGATTGGTT	0.999 ± 0.047
GGGATTGTAA	0.982 ± 0.021
GGGATTTCTG	1.03 ± 0.04
GGGATTTGCA	0.9758 ± 0.0075
GGGATTTTAA	0.9753 ± 0.0091
GGGCAAATTC	1.08 ± 0.02
GGGCAAATTG	0.968 ± 0.028
GGGCAACTGG	1.11 ± 0.15

Sequence	switch fluorescence ratio
GGGCAAGTTA	1.009 ± 0.007
GGGCAATGTC	1.39 ± 0.072
GGGCACTTTG	1.0204 ± 0.00091
GGGCAGACCA	1.01 ± 0.011
GGGCAGCCCG	0.98 ± 0.014
GGGCAGGATG	1.05 ± 0.039
GGGCAGGGGC	1 ± 0.025
GGGCAGGGGT	1.45 ± 0.84
GGGCAGGGTA	0.9883 ± 0.0076
GGGCAGGGTT	0.999 ± 0.03
GGGCATAACT	1.04 ± 0.044
GGGCATAATG	1.02 ± 0.041
GGGCATAGTT	0.97 ± 0.018
GGGCATCATG	1.04 ± 0.011
GGGCATCTAG	0.9863 ± 0.0013
GGGCATGAAA	1.02 ± 0.021
GGGCATGTCG	1.13 ± 0.013
GGGCATTGGG	0.996 ± 0.043
GGGCCAAGGG	1.01 ± 0.022
GGGCCACCGA	0.975 ± 0.0041
GGGCCACGTA	0.971 ± 0.082
GGGCCAGCTT	0.988 ± 0.016
GGGCCAGGGG	1.21 ± 0.067
GGGCCAGGGT	1.02 ± 0.0054
GGGCCATGGA	1.05 ± 0.099

Sequence	switch fluorescence ratio
GGGCCCGATT	0.976 ± 0.037
GGGCCCGGCG	0.973 ± 0.049
GGGCCCTGTT	1.03 ± 0.021
GGGCCGGGAC	0.961 ± 0.01
GGGCCTAGGA	1.028 ± 0.0069
GGGCCTGCGC	1 ± 0.015
GGGCCTGCTT	0.97 ± 0.052
GGGCCTGGGT	1 ± 0.017
GGGCCTGGTC	1.02 ± 0.032
GGGCCTTTAG	1.02 ± 0.033
GGGCGAAAAA	0.987 ± 0.054
GGGCGAATGG	1.02 ± 0.029
GGGCGCACGG	0.992 ± 0.039
GGGCGCCAGG	1.33 ± 0.66
GGGCGCGGGG	1.01 ± 0.023
GGGCGGAGGG	0.998 ± 0.027
GGGCGGCCGT	1.02 ± 0.044
GGGCGGGGAT	1.01 ± 0.018
GGGCGGGGCT	0.994 ± 0.016
GGGCGGGGGC	1.02 ± 0.056
GGGCGTAACT	0.991 ± 0.041
GGGCGTGGTG	1.03 ± 0.011
GGGCGTGTTG	1.027 ± 0.01
GGGCTAGTCG	1.01 ± 0.034
GGGCTATTTG	0.978 ± 0.013

Sequence	switch fluorescence ratio
GGGCTATTTT	0.991 ± 0.031
GGGCTCAACT	0.9946 ± 0.0053
GGGCTCTATC	0.9913 ± 0.0025
GGGCTCTGAC	1.049 ± 0.0084
GGGCTCTTGC	0.98 ± 0.068
GGGCTGATCT	1.04 ± 0.045
GGGCTGCATT	1.01 ± 0.011
GGGCTGGAAT	1 ± 0.02
GGGCTTGCAG	0.9812 ± 0.0089
GGGCTTGGGT	1.08 ± 0.12
GGGCTTGGTA	1 ± 0.014
GGGCTTGTGC	0.987 ± 0.071
GGGCTTTAAA	1.01 ± 0.012
GGGGAAACCT	2.21 ± 0.77
GGGGAAAGCA	1 ± 0.015
GGGGAAAGGG	1 ± 0.034
GGGGAAAGGT	0.989 ± 0.029
GGGGAACAGG	1.05 ± 0.06
GGGGAACCAT	1.01 ± 0.039
GGGGAACGGG	1 ± 0.027
GGGGAAGACG	1.01 ± 0.082
GGGGAAGCGA	1.09 ± 0.038
GGGGAAGCTT	1.04 ± 0.055
GGGGAAGTCT	0.984 ± 0.093
GGGGAAGTGG	1 ± 0.026
